The source of these data is patent publication US20260184748A1 (University of Pennsylvania, published 2026).

Some targets named below: DRD2S (UniProt P14416-2 1-414); MRGPRX1 (UniProt Q96LB2 1-322); DRD3 (UniProt P35462 1-400); SSTR2 (UniProt P30874 1-369); P2RY1 (UniProt P47900 1-373); FFAR1 (UniProt O14842 1-300); CALCRL-RAMP1 (UniProt Q16602 23-461; O60894 27-148); CALCR-RAMP2 (UniProt P30988 25-474; O60895 43-175, limits assumed); HTR1E (UniProt P28566 1-365); SSTR5 (UniProt P35346 1-364).
What all share (test): cell-based or functional assay
For another test, the target named is T1, HCRTR1 (UniProt O43613 1-425).
T1 sequence (looked up): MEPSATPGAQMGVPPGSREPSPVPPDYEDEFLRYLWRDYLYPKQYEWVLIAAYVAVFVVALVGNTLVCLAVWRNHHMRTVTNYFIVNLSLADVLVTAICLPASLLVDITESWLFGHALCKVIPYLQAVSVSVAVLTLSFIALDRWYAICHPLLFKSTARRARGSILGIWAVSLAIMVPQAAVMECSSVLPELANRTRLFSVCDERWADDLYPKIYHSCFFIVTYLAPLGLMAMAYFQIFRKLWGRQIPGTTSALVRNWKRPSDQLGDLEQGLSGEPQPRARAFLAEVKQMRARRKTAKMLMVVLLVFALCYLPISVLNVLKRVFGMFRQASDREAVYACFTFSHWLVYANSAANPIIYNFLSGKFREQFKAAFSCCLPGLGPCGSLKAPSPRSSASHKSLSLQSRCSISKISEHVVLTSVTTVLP

For the next test, the target named is T2, GALR1 (UniProt P47211 1-349).
T2 sequence (looked up): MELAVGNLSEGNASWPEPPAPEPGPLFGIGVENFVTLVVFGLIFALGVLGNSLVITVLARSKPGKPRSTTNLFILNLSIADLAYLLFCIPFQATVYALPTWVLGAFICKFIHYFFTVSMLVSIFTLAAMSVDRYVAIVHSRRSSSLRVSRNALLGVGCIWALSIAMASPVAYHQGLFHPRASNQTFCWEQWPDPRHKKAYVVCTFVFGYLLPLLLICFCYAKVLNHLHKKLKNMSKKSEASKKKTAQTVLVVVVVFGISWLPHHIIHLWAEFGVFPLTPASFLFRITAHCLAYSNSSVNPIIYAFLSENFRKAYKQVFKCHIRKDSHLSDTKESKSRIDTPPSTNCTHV

A further test concerns the target T3, CCR3 (UniProt P51677 1-355).
T3 sequence (looked up): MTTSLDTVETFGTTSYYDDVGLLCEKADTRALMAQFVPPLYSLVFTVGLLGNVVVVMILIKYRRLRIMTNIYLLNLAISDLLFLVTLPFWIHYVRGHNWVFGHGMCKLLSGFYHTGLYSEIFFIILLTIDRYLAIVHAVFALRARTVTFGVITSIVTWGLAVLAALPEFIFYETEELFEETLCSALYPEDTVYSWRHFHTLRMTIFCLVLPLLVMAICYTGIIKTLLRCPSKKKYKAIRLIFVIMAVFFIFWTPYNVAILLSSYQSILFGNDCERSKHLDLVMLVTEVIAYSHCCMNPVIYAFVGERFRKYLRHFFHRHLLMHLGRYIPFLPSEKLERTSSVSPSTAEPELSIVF

The next test concerns the target T4, CHRM4 (UniProt P08173 1-479).
T4 sequence (looked up): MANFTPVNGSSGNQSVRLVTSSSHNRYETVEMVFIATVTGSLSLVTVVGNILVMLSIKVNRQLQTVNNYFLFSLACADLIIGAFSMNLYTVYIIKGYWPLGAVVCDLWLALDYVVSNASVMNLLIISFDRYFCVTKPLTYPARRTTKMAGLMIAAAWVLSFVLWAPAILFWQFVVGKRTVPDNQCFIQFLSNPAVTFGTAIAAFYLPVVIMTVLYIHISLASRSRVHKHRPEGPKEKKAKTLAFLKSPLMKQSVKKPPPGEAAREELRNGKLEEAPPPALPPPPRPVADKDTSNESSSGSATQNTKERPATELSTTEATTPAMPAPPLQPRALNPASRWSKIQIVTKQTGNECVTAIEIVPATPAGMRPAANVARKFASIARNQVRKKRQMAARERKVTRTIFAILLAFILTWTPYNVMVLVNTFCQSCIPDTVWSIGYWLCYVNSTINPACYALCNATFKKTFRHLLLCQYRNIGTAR

The target of the next test is T5, TRHR (UniProt P34981 1-398).
T5 sequence (looked up): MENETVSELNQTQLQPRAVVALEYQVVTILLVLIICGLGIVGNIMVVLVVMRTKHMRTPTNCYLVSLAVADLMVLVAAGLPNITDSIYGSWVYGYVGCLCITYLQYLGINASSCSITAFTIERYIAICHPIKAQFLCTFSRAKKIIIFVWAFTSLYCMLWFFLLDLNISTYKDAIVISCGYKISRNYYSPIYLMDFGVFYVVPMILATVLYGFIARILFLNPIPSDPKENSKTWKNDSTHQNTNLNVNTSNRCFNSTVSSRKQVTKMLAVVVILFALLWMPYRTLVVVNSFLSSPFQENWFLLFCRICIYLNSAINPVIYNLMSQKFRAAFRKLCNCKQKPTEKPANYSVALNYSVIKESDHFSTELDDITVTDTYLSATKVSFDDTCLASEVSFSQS

Where no end group is shown, it is not given here.

Chain of FFAR1 (O14842 whole entry): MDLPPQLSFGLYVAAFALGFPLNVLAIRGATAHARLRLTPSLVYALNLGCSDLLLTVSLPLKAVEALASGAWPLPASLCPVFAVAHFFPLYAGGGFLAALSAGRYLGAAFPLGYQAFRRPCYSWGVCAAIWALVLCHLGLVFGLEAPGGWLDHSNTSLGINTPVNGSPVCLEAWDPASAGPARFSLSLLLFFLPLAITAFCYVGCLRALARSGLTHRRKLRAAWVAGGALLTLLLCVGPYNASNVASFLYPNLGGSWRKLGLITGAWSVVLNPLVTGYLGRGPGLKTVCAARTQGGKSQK
Chain of SSTR2 (P30874 whole entry): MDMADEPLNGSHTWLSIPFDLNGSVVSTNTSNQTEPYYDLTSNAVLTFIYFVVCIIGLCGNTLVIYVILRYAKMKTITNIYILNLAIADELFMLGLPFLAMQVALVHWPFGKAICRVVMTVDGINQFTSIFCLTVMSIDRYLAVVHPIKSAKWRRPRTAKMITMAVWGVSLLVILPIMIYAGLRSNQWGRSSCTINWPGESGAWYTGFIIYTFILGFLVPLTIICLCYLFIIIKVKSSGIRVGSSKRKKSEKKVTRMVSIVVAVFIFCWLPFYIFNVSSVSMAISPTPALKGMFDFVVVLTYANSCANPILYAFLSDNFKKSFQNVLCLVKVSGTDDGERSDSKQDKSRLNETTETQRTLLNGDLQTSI
Chain of DRD3 (P35462 whole entry): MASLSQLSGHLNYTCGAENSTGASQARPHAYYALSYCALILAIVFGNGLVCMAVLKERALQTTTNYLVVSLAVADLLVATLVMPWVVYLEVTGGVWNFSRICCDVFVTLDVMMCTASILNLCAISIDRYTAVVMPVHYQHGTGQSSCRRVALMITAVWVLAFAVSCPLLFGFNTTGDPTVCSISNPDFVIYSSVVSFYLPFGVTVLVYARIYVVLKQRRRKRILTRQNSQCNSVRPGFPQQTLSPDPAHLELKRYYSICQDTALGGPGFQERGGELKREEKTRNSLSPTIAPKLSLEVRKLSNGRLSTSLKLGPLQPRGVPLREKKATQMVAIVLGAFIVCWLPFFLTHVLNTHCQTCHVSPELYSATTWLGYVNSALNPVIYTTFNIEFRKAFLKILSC
Chain of HTR1E (P28566 whole entry): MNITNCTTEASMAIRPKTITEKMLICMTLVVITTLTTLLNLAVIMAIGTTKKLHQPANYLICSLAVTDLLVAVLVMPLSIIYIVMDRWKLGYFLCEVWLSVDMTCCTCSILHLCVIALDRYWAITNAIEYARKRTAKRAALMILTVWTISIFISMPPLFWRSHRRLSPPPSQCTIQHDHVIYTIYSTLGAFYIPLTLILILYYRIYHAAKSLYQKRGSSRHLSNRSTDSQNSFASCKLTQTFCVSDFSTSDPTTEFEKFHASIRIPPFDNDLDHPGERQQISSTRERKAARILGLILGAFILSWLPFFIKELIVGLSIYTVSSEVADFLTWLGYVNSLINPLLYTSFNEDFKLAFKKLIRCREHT
Chain of P2RY1 (P47900 whole entry): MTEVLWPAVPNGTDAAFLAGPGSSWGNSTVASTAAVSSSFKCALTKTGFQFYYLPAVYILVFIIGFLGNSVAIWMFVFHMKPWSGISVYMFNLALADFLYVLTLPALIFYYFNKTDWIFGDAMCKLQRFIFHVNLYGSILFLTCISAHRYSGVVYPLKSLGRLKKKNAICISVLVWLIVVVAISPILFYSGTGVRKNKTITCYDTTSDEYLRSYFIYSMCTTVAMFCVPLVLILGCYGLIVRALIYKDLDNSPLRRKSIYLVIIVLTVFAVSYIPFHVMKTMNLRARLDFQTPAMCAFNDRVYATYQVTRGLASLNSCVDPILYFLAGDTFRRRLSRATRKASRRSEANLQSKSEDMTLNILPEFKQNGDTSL
Chain of MRGPRX1 (Q96LB2 whole entry): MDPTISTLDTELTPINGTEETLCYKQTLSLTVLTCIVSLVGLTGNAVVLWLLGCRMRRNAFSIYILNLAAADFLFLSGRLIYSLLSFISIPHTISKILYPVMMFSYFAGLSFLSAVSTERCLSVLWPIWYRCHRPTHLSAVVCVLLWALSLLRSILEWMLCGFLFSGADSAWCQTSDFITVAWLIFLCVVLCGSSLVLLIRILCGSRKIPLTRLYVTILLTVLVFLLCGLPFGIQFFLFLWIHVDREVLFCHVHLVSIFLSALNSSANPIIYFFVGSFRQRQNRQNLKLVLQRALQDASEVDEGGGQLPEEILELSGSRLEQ
Chain of CALCRL-RAMP1 (Q16602 23-461 limits assumed, chain 1 of 2): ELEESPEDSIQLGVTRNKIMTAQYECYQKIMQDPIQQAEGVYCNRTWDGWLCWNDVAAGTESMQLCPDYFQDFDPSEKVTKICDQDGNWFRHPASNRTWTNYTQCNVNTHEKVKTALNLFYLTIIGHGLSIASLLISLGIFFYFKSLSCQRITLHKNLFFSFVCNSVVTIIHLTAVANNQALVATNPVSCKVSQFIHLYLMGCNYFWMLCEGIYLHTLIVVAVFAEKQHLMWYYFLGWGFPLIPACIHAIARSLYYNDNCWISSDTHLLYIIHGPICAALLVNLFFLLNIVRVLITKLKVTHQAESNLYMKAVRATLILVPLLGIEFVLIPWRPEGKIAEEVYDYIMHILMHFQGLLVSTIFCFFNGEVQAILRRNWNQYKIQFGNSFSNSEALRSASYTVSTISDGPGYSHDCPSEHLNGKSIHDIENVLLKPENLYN
Chain of CALCRL-RAMP1 (O60894 27-148 limits assumed, chain 2 of 2): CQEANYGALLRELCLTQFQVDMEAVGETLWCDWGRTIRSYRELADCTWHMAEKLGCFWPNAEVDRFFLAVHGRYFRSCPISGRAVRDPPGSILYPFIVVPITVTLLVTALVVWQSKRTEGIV
Chain of SSTR5 (P35346 whole entry): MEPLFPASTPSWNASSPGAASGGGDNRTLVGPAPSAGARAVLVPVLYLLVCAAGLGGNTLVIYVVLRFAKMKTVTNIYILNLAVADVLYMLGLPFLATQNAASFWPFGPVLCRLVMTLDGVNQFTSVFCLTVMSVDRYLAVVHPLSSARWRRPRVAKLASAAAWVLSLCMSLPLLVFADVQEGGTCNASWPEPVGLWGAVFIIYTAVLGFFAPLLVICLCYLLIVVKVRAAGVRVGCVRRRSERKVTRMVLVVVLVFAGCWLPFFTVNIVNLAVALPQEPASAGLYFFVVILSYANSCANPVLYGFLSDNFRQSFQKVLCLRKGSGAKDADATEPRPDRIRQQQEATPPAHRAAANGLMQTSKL
Chain of CALCR-RAMP2 (P30988 25-474 limits assumed, chain 1 of 2): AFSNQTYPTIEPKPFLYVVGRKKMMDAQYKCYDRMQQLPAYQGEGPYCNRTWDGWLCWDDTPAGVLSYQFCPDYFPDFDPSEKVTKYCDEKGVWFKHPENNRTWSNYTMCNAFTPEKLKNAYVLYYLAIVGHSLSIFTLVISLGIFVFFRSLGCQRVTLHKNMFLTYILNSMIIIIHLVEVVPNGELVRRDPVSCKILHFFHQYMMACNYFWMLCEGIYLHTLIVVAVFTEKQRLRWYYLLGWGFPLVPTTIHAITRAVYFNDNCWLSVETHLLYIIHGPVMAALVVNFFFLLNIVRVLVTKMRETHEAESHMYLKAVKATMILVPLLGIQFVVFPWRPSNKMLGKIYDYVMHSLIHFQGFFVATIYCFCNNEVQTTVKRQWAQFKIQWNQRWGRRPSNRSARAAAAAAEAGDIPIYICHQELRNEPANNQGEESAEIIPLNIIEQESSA
Chain of CALCR-RAMP2 (O60895 43-175 limits assumed, chain 2 of 2): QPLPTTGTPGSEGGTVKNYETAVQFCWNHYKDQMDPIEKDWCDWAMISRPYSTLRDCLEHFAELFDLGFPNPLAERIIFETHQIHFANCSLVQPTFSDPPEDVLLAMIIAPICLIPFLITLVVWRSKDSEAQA
Chain of DRD2S (P14416 other isoform, or with tags, fused parts or gaps limits assumed): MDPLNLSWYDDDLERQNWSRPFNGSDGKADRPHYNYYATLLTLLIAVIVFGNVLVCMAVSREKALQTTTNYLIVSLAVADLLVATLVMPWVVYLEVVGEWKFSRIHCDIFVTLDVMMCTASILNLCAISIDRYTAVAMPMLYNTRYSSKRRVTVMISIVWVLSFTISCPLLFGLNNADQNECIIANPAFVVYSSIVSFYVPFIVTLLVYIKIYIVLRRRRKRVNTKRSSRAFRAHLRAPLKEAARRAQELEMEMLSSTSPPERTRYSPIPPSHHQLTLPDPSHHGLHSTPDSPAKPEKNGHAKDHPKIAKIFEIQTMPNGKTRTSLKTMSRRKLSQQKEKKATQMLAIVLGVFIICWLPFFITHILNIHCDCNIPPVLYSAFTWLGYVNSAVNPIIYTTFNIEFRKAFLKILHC

B1: octadecaneuropeptide (ODN) (peptide)
peptide: QATVGDVNTDRPGLLDLK
modifications: also: synthesised on Rink amide resin, C-terminal amide not given here outright
For B1, the “% Activity, arrestin, antagonist mode, 2.5 uM” value (from here on “% Activity, arrestin”) with HCRTR1 is -1.7%; with GALR1, -22.5%; in the test with CCR3 it was -5.8%; with DRD2S it was -13.4%; with MRGPRX1, 3.8%; with DRD3 it was -1%. Also, the “% Activity, arrestin” value with SSTR2 was -20.5%; with P2RY1, -6.4%; in the test with FFAR1, -3.9%; with CALCRL-RAMP1 it was -19%; with CHRM4, 5.8%; with CALCR-RAMP2 it was -17.8%. Moreover, the “% Activity, arrestin” value in the test with TRHR was -6.6%; with HTR1E, -3.8%; in the test with SSTR5, -17.3%.
